From patent US20250289897A1 (Eli Lilly, published 2025)

B1: Antibody A (antibody, human IgG1, kappa, L234A L235A)
heavy: EVQLLESGGGLVQPGGSLRLSCAASGFTFSSFAMSWVRQAPGKGLEWVSAISGSGGSTYSADSVRGRFTISRDNSKNTLYLQMNSLRAEDTAVYYCAKDQGDWDFLFDYWGQGTLVTVSSASTKGPSVFPLAPSSKSTSGGTAALGCLVKDYFPEPVTVSWNSGALTSGVHTFPAVLQSSGLYSLSSVVTVPSSSLGTQTYICNVNHKPSNTKVDKRVEPKSCDKTHTCPPCPAPEAAGGPSVFLFPPKPKDTLYITREPEVTCVVVSVSHEDPEVKFNWYVDGVEVHNAKTKPREEQYNSTYRVVSVLTVLHQDWLNGKEYKCKVSNKALPAPIEKTISKAKGQPREPQVYTLPPSREEMTKNQVSLTCLVKGFYPSDIAVEWESNGQPENNYKTTPPVLDSDGSFFLYSKLTVDKSRWQQGNVFSCSVMHEALHNHYTQKSLSLSPGK
light: DIQMTQSPSFLSASVGDRVTITCRASQGISSSLAWYQQKPGKAPKLLIYTASTLQSGVPSRFSGSGSGTEFTLTISSLQPEDFATYYCQQLIYYPFTFGQGTKVEIKRTVAAPSVFIFPPSDEQLKSGTASVVCLLNNFYPREAKVQWKVDNALQSGNSQESVTEQDSKDSTYSLSSTLTLSKADYEKHKVYACEVTHQGLSSPVTKSFNRGEC
notes: IgG1 mAb
B2: Antibody B (antibody, human IgG1, kappa, L234A L235A, V domains shown)
VH: EVQLLESGGGLVQPGGSLRLSCAASGFTFSSFAMSWVRQAPGKGLEWVSAISGSGGSTYSADSVRGRFTISRDNSKNTLYLQMNSLRAEDTAVYYCAKDQGDWDFLFDYWGQGTLVTVSS
VL: DIQMTQSPSFLSASVGDRVTITCRVSQGISSSLAWYQQKPGKAPKLLIYTASTLQSGVPSRFSGSGSGTEFTLTISSLQPEDFATYYCQQLNYYPFTFGQGTKVEIKR

Key:
CYNO LEPR-ECD-His = molecular target: T1, CYNO LEPR-ECD-His (cynomolgus monkey, UniProt Q9MYL0 22-837 (rhesus entry)); test: SPR (Biacore T200), antibody captured on Protein A/G chip, His-tagged LEPR-ECD as analyte, 1:1 fit; mean n=3, SD 2.0E-9
T1 construct: also called cynomolgus monkey LEPR
T1 sequence: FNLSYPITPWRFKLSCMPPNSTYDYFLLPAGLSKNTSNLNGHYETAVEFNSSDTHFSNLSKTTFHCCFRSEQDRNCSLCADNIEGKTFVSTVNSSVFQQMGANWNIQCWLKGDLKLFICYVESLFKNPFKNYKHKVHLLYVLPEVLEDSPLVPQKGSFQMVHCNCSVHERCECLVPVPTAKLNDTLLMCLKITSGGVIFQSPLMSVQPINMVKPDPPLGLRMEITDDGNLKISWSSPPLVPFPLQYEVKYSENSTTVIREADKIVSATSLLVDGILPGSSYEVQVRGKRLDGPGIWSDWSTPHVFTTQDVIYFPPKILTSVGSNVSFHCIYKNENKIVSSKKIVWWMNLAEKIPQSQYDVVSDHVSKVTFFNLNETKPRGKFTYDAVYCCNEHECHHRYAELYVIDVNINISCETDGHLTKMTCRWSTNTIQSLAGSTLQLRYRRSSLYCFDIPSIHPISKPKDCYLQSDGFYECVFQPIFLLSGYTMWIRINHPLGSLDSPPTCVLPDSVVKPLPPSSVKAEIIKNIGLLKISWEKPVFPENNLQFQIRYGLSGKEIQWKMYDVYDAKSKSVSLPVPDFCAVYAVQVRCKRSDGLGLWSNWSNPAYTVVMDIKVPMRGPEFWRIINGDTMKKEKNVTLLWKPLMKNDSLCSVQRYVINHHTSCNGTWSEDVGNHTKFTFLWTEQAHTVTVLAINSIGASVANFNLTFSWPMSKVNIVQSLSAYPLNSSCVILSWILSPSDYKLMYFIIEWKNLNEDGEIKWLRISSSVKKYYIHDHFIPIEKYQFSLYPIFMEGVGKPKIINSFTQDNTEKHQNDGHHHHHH
Method: (§1) His-tagged ECDs were expressed and purified for each species and used for affinity analysis. A Protein A/G chip (Xantec, Cat #PAGHC200M) was utilized in this experiment with HBS-EP +0.01% BSA as running buffer. Antibodies were diluted to 1 μg/mL in running buffer and captured to a single flow cell on the chip surface. Each species of LEPR-ECD was diluted to 1000 nM in running buffer followed by 2-fold serial dilution. Each ligand concentration was injected over all flow cells at 100 L/min for 150 seconds followed by a 600 second dissociation phase. Regeneration was performed by injecting 10 mM glycine pH1.5 for 30 seconds at 10 μL/min. Data were analyzed in Biacore T200 Evaluation Software 3.1 by flow-cell 1 reference subtraction along with 0 nM blank subtraction. Data were fit globally using a “1:1 Binding” binding model to determine the on-rate (kₐ) and off-rate (kd) for each ligand. The affinity (KD) was calculated from the binding kinetics according to the relationship KD=kₐ/kd. Data reported as mean±standard deviation of experimental replicates.

[1] = molecular target: T2, human LEPR, full length, on HEK293-STAT3Luc-hLepR1 cells (Homo sapiens, UniProt P48357 22-1165); test: flow cytometry on live HEK293-STAT3Luc-hLepR1 cells, AF647 anti-human IgG; average of 4 runs, SD 1.7
T2 construct: also called human LEPR on live cell surface
T2 sequence: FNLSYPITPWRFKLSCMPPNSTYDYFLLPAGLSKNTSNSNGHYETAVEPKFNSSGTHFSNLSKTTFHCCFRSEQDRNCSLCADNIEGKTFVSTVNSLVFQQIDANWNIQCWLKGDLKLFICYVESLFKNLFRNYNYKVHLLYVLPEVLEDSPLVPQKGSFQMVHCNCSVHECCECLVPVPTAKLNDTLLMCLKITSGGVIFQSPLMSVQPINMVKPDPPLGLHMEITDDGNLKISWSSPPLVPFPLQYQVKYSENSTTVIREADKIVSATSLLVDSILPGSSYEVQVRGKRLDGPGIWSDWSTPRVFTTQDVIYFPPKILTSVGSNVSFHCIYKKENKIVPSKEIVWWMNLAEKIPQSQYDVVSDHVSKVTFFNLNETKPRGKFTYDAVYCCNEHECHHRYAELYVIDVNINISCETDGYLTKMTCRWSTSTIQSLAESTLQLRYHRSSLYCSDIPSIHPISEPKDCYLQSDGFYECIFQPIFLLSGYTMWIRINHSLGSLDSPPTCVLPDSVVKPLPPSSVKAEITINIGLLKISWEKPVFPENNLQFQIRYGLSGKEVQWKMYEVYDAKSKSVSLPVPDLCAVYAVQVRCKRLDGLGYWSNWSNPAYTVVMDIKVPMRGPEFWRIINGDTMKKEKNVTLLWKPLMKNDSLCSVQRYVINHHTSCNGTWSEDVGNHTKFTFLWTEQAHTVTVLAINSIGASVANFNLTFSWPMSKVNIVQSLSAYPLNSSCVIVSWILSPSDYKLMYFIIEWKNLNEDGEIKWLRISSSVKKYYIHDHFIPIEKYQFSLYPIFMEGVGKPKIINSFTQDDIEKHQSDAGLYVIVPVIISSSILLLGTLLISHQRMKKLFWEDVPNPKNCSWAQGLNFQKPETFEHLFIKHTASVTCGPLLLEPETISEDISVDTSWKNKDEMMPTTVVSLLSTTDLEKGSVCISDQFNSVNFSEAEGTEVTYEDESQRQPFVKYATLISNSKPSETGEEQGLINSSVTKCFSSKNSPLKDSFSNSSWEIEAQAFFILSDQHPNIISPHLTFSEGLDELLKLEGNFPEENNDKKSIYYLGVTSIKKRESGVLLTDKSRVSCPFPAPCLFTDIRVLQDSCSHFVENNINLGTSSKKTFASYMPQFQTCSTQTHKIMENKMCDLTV
Method: Cells were incubated in blocking buffer for 10 mins at room temperature. After one rinse with PBS, cells were transferred to U-bottom 96-well plate at 200 μL and 0.2˜0.26^e6 cells/well. […] Cells were then incubated with 30 μL/well of antibodies diluted in flow buffer at 1000 nM as high dose followed by 9-point dose response including 5-fold dilutions not including 0 (totaling 9 concentrations for each Antibody) for 30 minutes at 4° C. in dark.

canine LEPR-ECD-His = molecular target: T3, canine LEPR-ECD-His (canine); test: SPR (Biacore T200), antibody captured on Protein A/G chip, His-tagged LEPR-ECD as analyte, 1:1 fit; mean n=2, SD 1.9E-8
T3 chain: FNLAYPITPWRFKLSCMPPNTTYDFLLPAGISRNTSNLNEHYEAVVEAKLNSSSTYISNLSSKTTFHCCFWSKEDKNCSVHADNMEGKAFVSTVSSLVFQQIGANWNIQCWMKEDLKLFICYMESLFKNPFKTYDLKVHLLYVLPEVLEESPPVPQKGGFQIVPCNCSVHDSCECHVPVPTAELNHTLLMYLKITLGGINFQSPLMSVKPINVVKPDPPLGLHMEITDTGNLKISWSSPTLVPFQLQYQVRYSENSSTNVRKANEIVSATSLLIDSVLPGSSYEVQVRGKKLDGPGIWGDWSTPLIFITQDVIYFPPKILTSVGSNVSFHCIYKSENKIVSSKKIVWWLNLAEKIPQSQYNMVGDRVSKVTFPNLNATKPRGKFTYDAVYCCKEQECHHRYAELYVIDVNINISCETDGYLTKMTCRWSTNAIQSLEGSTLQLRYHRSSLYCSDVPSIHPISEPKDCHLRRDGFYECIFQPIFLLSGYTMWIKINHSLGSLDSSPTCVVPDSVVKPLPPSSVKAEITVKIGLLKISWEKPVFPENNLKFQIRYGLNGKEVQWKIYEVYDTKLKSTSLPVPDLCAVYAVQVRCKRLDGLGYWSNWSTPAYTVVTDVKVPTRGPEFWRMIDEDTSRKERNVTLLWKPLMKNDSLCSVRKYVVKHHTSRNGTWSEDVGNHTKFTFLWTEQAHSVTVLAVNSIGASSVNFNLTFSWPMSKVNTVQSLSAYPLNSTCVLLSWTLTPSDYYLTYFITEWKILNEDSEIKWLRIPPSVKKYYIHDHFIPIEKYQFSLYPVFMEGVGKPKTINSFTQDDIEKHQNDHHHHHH
Method: as §1

Binder	Kd (CYNO LEPR-ECD-His) [µM]	EC50 [1] [µM]	Kd (canine LEPR-ECD-His) [µM]
B1	0.019	0.00245	
B2			0.33
